This note sets out measurements from doi:10.1101/2025.01.09.632101.

The target of the experiment is DPEP1-Avi: porcine DPEP1 ectodomain (residues 17-385) with Strep and Avi tags, biotinylated (porcine (Sus scrofa)) (UniProt P22412). As to the kind of experiment: BLI. (In general: BLI is a label-free optical method that tracks binding on a fibre tip over time.)

As a reminder, the Kd is the equilibrium constant for the complex coming apart.

Chain of UniProt P22412 (P22412 17-385): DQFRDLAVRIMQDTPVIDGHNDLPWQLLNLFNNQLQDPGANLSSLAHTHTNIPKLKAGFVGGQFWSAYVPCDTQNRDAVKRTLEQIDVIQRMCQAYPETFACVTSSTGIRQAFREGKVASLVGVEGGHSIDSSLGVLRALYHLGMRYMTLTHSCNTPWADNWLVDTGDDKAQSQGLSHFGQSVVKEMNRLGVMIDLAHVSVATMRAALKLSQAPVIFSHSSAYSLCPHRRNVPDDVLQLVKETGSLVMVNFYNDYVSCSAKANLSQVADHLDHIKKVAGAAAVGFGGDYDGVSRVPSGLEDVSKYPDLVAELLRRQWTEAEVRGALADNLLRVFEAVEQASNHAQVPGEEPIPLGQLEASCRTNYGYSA

“PHEV spike RBD (residues 327-605), from Expi293F cells, with His, Strep and Avi tags (domain or fragment)” gave a Kd of 1500 nM.
